Test [1] deals with Thiomicrospira Cas6-RT-Cas1 fusion protein (Thiomicrospira). The test can be described thus: cryo-EM structure.
The target of test [2] is Thiomicrospira Cas2 (Thiomicrospira). The test can be described thus: cryo-EM structure.

Usually stoichiometry N stands for the number of molecules, sites or subunits per partner or assembly. In test [1], “Thiomicrospira Cas6-RT-Cas1 fusion protein (enzyme)” showed a stoichiometry N of 2.
Thiomicrospira Cas2 (natural protein) gave a stoichiometry N in test [2] of 2.

(Values after paper doi:10.1101/2020.10.18.344481.)
